Data reported in the supplement of paper PMC10065799, “High-throughput profiling of sequence recognition by tyrosine kinases and SH2 domains using bacterial peptide display” (eLife, 2023).

What follows are sequences tested on Fer (mouse) (assay: phosphorylation enrichment, bacterial display (enrichment ratio); higher = better substrate or ligand; peptides without Tyr show the background).
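Also: 11-residue human phosphosite peptides and single-mutation variants displayed on the E. coli surface, counted by deep sequencing, each peptide's frequency after selection divided by its frequency in the unselected input library; frequency after pTyr selection over input frequency; kinase dosed for 20-30% of maximal phosphorylation in three min.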

Sequence	phosphorylation enrichment
EQKKNYNAMKK [SCN5A_Y1495_Y1494N]	0.538
FDGKDYIALNE [HLA-A_Y147_YF]	0.496
QEIATYPRLLE [KRT14_Y415_R416P]	0.792
ANAFIYDVQLP [L1CAM_Y420_V421D_YF]	1.19
GRQWNYVASMS [KLHL4_Y552]	0.355
TKVVHYWKWIK [KLK2_Y249_R250W]	0.378
KLADIYQAELR [GFAP_Y116_V115I]	0.502
TAALWYIFLHT [ENG_Y612_S615L_YF]	0.577
LYRYGYANTSE [SI_Y1233_C1229Y]	0.32
DEGVNHFMSKG [FBXO8_Y156_Y156H]	0.357
LSQAKYQIRFR [CRLF1_Y272_F268S_YF]	0.499
PEEKVYLSRGD [CRACR2A_Y141_H136P]	0.778
NKVKFYIPYMN [NCR1_Y84_D87Y]	0.469
GEFHVYRHLRR [PRKRIP1_Y82]	0.4
INNIDYFKKTT [FGFR2_Y656_YF]	0.36
NLGQQYNSPQE [UMPS_Y432]	0.498
FVSIVYNDSGE [TSC2_Y1650]	0.52
PSAELYSNALP [PDGFRB_Y716]	7.66
DRLAVCIDRVR [LMNA_Y45_Y45C]	0.457
EDEGLYTVRVP [MYOM3_Y343_M344T]	1.38
LDTIQYSKHPP [SQSTM1_Y433]	0.583
SIRYNYLLDVL [FGFR4_Y237]	0.47

These sequences were tested against FGFR3 (UniProt P22607) in the same assay as above.
Sequence of FGFR3 (P22607 whole entry, looked up): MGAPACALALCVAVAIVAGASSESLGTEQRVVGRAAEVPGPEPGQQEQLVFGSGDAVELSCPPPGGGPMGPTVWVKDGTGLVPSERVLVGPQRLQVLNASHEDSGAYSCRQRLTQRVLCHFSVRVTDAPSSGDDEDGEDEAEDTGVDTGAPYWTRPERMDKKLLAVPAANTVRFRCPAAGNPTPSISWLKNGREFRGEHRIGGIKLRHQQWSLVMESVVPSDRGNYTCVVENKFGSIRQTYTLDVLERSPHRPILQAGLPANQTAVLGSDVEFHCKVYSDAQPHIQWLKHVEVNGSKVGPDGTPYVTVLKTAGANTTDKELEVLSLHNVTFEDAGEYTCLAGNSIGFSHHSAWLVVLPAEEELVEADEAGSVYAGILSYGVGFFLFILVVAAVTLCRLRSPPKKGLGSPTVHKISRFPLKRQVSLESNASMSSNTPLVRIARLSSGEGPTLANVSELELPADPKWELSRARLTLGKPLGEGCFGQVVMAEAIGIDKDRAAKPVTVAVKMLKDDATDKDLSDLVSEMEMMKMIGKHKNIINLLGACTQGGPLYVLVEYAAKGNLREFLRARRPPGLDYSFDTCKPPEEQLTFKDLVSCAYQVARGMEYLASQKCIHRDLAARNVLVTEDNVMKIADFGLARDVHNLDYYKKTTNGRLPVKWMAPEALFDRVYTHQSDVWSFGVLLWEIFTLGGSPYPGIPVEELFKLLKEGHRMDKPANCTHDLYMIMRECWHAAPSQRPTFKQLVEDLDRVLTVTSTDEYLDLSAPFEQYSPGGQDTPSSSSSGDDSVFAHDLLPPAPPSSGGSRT

Sequence	phosphorylation enrichment
EQKKNYNAMKK [SCN5A_Y1495_Y1494N]	0.826
FDGKDYIALNE [HLA-A_Y147_YF]	0.68
QEIATYPRLLE [KRT14_Y415_R416P]	0.869
ANAFIYDVQLP [L1CAM_Y420_V421D_YF]	0.627
GRQWNYVASMS [KLHL4_Y552]	0.539
TKVVHYWKWIK [KLK2_Y249_R250W]	0.58
KLADIYQAELR [GFAP_Y116_V115I]	0.582
TAALWYIFLHT [ENG_Y612_S615L_YF]	1.2
LYRYGYANTSE [SI_Y1233_C1229Y]	0.507
DEGVNHFMSKG [FBXO8_Y156_Y156H]	0.504
LSQAKYQIRFR [CRLF1_Y272_F268S_YF]	0.596
PEEKVYLSRGD [CRACR2A_Y141_H136P]	1.29
NKVKFYIPYMN [NCR1_Y84_D87Y]	0.655
GEFHVYRHLRR [PRKRIP1_Y82]	0.581
INNIDYFKKTT [FGFR2_Y656_YF]	0.64
NLGQQYNSPQE [UMPS_Y432]	0.675
FVSIVYNDSGE [TSC2_Y1650]	0.725
PSAELYSNALP [PDGFRB_Y716]	1.73
DRLAVCIDRVR [LMNA_Y45_Y45C]	0.682
EDEGLYTVRVP [MYOM3_Y343_M344T]	0.939
LDTIQYSKHPP [SQSTM1_Y433]	1.08
SIRYNYLLDVL [FGFR4_Y237]	0.636

Each sequence was assayed against Hck (UniProt P08631) in the same assay as above.
Sequence of Hck (P08631 whole entry, looked up): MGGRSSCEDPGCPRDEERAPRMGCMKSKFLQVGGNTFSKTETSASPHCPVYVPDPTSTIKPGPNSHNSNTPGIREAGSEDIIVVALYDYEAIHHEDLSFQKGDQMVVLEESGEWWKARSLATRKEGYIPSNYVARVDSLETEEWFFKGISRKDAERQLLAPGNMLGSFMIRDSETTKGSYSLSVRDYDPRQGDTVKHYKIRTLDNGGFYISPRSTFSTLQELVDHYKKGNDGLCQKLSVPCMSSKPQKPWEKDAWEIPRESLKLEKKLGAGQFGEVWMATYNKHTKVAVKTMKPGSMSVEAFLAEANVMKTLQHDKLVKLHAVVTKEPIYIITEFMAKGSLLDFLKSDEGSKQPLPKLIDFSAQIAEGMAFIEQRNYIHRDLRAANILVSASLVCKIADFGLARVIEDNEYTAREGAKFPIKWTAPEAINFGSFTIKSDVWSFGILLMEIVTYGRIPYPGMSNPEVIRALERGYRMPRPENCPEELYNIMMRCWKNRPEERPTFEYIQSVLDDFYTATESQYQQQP

Sequence	phosphorylation enrichment
EQKKNYNAMKK [SCN5A_Y1495_Y1494N]	0.489
FDGKDYIALNE [HLA-A_Y147_YF]	0.6
QEIATYPRLLE [KRT14_Y415_R416P]	0.845
ANAFIYDVQLP [L1CAM_Y420_V421D_YF]	4.65
GRQWNYVASMS [KLHL4_Y552]	0.4
TKVVHYWKWIK [KLK2_Y249_R250W]	0.501
KLADIYQAELR [GFAP_Y116_V115I]	0.799
TAALWYIFLHT [ENG_Y612_S615L_YF]	0.689
LYRYGYANTSE [SI_Y1233_C1229Y]	0.395
DEGVNHFMSKG [FBXO8_Y156_Y156H]	0.364
LSQAKYQIRFR [CRLF1_Y272_F268S_YF]	0.431
PEEKVYLSRGD [CRACR2A_Y141_H136P]	1.1
NKVKFYIPYMN [NCR1_Y84_D87Y]	0.431
GEFHVYRHLRR [PRKRIP1_Y82]	0.57
INNIDYFKKTT [FGFR2_Y656_YF]	0.567
NLGQQYNSPQE [UMPS_Y432]	0.502
FVSIVYNDSGE [TSC2_Y1650]	0.611
PSAELYSNALP [PDGFRB_Y716]	3.02
DRLAVCIDRVR [LMNA_Y45_Y45C]	0.477
EDEGLYTVRVP [MYOM3_Y343_M344T]	4.08
LDTIQYSKHPP [SQSTM1_Y433]	0.695
SIRYNYLLDVL [FGFR4_Y237]	0.603

What follows are sequences tested on c-Abl (mouse) in the same assay as above.

Sequence	phosphorylation enrichment
EQKKNYNAMKK [SCN5A_Y1495_Y1494N]	1.1
FDGKDYIALNE [HLA-A_Y147_YF]	0.654
QEIATYPRLLE [KRT14_Y415_R416P]	1.07
ANAFIYDVQLP [L1CAM_Y420_V421D_YF]	0.715
GRQWNYVASMS [KLHL4_Y552]	0.719
TKVVHYWKWIK [KLK2_Y249_R250W]	0.714
KLADIYQAELR [GFAP_Y116_V115I]	0.674
TAALWYIFLHT [ENG_Y612_S615L_YF]	1.24
LYRYGYANTSE [SI_Y1233_C1229Y]	0.511
DEGVNHFMSKG [FBXO8_Y156_Y156H]	0.516
LSQAKYQIRFR [CRLF1_Y272_F268S_YF]	0.597
PEEKVYLSRGD [CRACR2A_Y141_H136P]	1.35
NKVKFYIPYMN [NCR1_Y84_D87Y]	0.609
GEFHVYRHLRR [PRKRIP1_Y82]	0.601
INNIDYFKKTT [FGFR2_Y656_YF]	0.373
NLGQQYNSPQE [UMPS_Y432]	0.634
FVSIVYNDSGE [TSC2_Y1650]	0.647
PSAELYSNALP [PDGFRB_Y716]	0.96
DRLAVCIDRVR [LMNA_Y45_Y45C]	0.76
EDEGLYTVRVP [MYOM3_Y343_M344T]	0.737
LDTIQYSKHPP [SQSTM1_Y433]	0.75
SIRYNYLLDVL [FGFR4_Y237]	0.821
